Columns and labels:
[1] = biological target: ZIKV-VLP (Native Antigen Inc.) (Zika virus); assay: BLI binning on ZIKV-VLP; 1st mAb: C10
[2] = biological target: ZIKV-VLP (Native Antigen Inc.) (Zika virus); assay: indirect ELISA, purified antibody serially diluted from 10 µg/ml
[3] = biological target: purified inactivated Zika virus (PIZV) (Zika virus); assay: as above
[4] = biological target: ZIKV-VLP (Native Antigen Inc.) (Zika virus); assay: BLI binning on ZIKV-VLP; 1st mAb: 11-3
[5] = biological target: ZIKV-VLP (Native Antigen Inc.) (Zika virus); assay: BLI binning on ZIKV-VLP; 1st mAb: 270-12
[6] = biological target: ZIKV-VLP (Native Antigen Inc.) (Zika virus); assay: BLI binning on ZIKV-VLP; 1st mAb: 329-2
[7] = biological target: ZIKV-VLP (Native Antigen Inc.) (Zika virus); assay: BLI binning on ZIKV-VLP; 1st mAb: Ab1
[8] = biological target: ZIKV-VLP (Native Antigen Inc.) (Zika virus); assay: BLI binning on ZIKV-VLP; 1st mAb: 289-3
[9] = biological target: ZIKV-VLP (Native Antigen Inc.) (Zika virus); assay: BLI binning on ZIKV-VLP; 1st mAb: 181-4
[10] = biological target: ZIKV-VLP (Native Antigen Inc.) (Zika virus); assay: BLI binning on ZIKV-VLP; 1st mAb: 102-1
[11] = biological target: ZIKV-VLP (Native Antigen Inc.) (Zika virus); assay: BLI binning on ZIKV-VLP; 1st mAb: 4G2
[12] = biological target: ZIKV-VLP (Native Antigen Inc.) (Zika virus); assay: BLI binning on ZIKV-VLP; 1st mAb: 242-3
[13] = biological target: ZIKV-VLP (Native Antigen Inc.) (Zika virus); assay: BLI binning on ZIKV-VLP; 1st mAb: Ab2
[14] = biological target: ZIKV-VLP (Native Antigen Inc.) (Zika virus); assay: BLI binning on ZIKV-VLP; 1st mAb: 306-2
[15] = biological target: ZIKV-VLP (Native Antigen Inc.) (Zika virus); assay: BLI binning on ZIKV-VLP; 1st mAb: 78-2
[16] = biological target: ZIKV-VLP (Native Antigen Inc.) (Zika virus); assay: BLI binning on ZIKV-VLP; 1st mAb: 260-2
[17] = biological target: ZIKV-VLP (Native Antigen Inc.) (Zika virus); assay: BLI binning on ZIKV-VLP; 1st mAb (row): C10
[18] = biological target: ZIKV-VLP (Native Antigen Inc.) (Zika virus); assay: BLI binning on ZIKV-VLP; 1st mAb (row): 102-1
[19] = biological target: Zika PRVABC59 live virus (Zika virus); assay: cell-based or functional assay
[20] = biological target: ZIKV-VLP (Native Antigen Inc.) (Zika virus); assay: BLI binning on ZIKV-VLP; 1st mAb (row): 289-3
[21] = biological target: ZIKV-VLP (Native Antigen Inc.) (Zika virus); assay: BLI binning on ZIKV-VLP; 1st mAb (row): 270-12
[22] = biological target: ZIKV-VLP (Native Antigen Inc.) (Zika virus); assay: BLI binning on ZIKV-VLP; 1st mAb (row): 242-3
[23] = biological target: ZIKV-VLP (Native Antigen Inc.) (Zika virus); assay: BLI binning on ZIKV-VLP; 1st mAb (row): 306-2

With “4G2 (commercially-available anti-dengue antibody)” the response of 2nd mAb [1] was 0.54, the EC50 (half-maximal binding concentration) [2] was 0.33 µg/mL and the EC50 [3] was 0.0182 µg/mL. The response of 2nd mAb [4] was 0.52, the response of 2nd mAb [5] was 0.43 and the response of 2nd mAb [6] was 0.51. The response of 2nd mAb [7] was 0.52, the response of 2nd mAb [8] was 0.51 and the response of 2nd mAb [9] was 0.5. For the same substance, the response of 2nd mAb [10] was 0.46, the response of 2nd mAb [11] was 0.62 and the response of 2nd mAb [12] was 0.52. The response of 2nd mAb [13] was -0.08, the response of 2nd mAb [14] was 0.43 and the response of 2nd mAb [15] was 0.17. For the same substance, the response of 2nd mAb [16] was 0.54.

Work on “C10 (commercially-available anti-dengue antibody)” yielded a response of 2nd mAb [1] of 0.17, an EC50 (half-maximal binding concentration) [2] of 0.162 µg/mL and an EC50 (half-maximal binding concentration) [3] of 0.0268 µg/mL. It also gave a response of 2nd mAb [17] of -0.0123, a response of 2nd mAb [4] of 0.63 and a response of 2nd mAb [5] of 0.58. It also gave a response of 2nd mAb [18] of -0.0138, a response of 2nd mAb [6] of 0.57 and a response of 2nd mAb [7] of 0.66. It also gave an MNT IC50 (ng/mL) of Purified antibody [19] of 306 ng/mL, a response of 2nd mAb [20] of -0.0388 and a response of 2nd mAb [21] of -0.0081. It also gave a response of 2nd mAb [8] of 0.63, a response of 2nd mAb [22] of -0.0078 and a response of 2nd mAb [23] of 0.0209. It also gave a response of 2nd mAb [9] of 0.55, a response of 2nd mAb [10] of 0.68 and a response of 2nd mAb [11] of 0.24. For the same substance, the response of 2nd mAb [12] was 0.59, the response of 2nd mAb [13] was 0.05 and the response of 2nd mAb [14] was 0.62. For the same substance, the response of 2nd mAb [15] was 0.56 and the response of 2nd mAb [16] was 0.61.

Reference: patent publication US20220332800A1
